Measured values as given in patent publication US20150197568A1 (AstraZeneca / MedImmune, published 2015).
Residue numbers refer to the chain shown, from its start.

B1: CAN022D10 scFv (scFv, V domains shown)
VH: EVQLVQSGGGLIQPGGSLRLSCAASGFTISSNYMIWVRQAPGKGLEWVSDLYYYAGDTYYADSVKGRFTMSRDISKNTVYLQMNSLRAEDTGVYYCARWADDHYYYIDVWGRGTLVTVSS
VL: DIVMTQSPSTLSASVGDRVTITCRASQGISSWLAWYQQKPGRAPKVLIYKASTLESGVPSRFSGSGSGTDFTLTISSLQPEDFATYYCQQSYSTPWTFGQGTKLEIKR
notes: Purified scFv from bacteria; also called CAN22D10; parent; not shown: scFv linker, domain order and any purification tags
B2: Antibody 4 scFv (scFv, V domains shown)
VH: B1 VH with I29V, I35T, D102G, I107A, T117S
VL: B1 VL with T85S, T94A, I106L
notes: Non-germlined; also called Ab 4; not shown: scFv linker, domain order and any purification tags
B3: Antibody 3 scFv (scFv, V domains shown)
VH: B1 VH with E1Q, I35V, M70V, Y106H
VL: B1 VL with V46A
notes: Non-germlined; also called Ab 3; not shown: scFv linker, domain order and any purification tags
B4: Antibody 2 scFv (scFv, V domains shown)
VH: B1 VH with I35T, K65R, N84D, D102G, R112G
VL: B1 VL with A34T, T94A, I106L
notes: Non-germlined; also called Ab 2; not shown: scFv linker, domain order and any purification tags
B5: Antibody 5 scFv (scFv, V domains shown)
VH: B1 VH with D102G, I107A, T117S
VL: B1 VL with S9P, T85S, T94A
notes: Non-germlined; also called Ab 5; not shown: scFv linker, domain order and any purification tags
B6: Antibody 7 (GL) IgG (antibody, V domains shown)
VH: B1 VH with Q6E, I12V, G92A, Y104P, Y105A, Y106W, I107V, V109L
VL: DIQMTQSPSTLSASVGDRVTITCRASQGISSWLAWYQQKPGKAPKVLIYKASTLESGVPSRFSGSGSGTEFTLTISSLQPDDFATYYCQQSWLGGSFGQGTKLEIKR
notes: Germlined IgG1 with human kappa constant domain; also called Ab 7
B7: Antibody 17 (GL) IgG (antibody, V domains shown)
VH: B1 VH with Q6E, I12V, G92A, Y104P, Y105P, V109M
VL: B6 VL
B8: Antibody 18 (GL) IgG (antibody, V domains shown)
VH: B1 VH with Q6E, I12V, G92A, Y104P, Y105P, Y106W, V109L
VL: B6 VL
notes: Germlined IgG1/kappa; also called Ab 18
B9: Antibody 19 IgG (antibody, V domains shown)
VH: B1 VH with Y104P, Y105S, Y106H, I107L, V109I
VL: B6 VL with Q3V, K42R, E70D, D81E
B10: Antibody 23 IgG (antibody, V domains shown)
VH: B1 VH with Y104A, Y105P, Y106W, I107V, V109L
VL: B6 VL with Q3V, K42R, E70D, D81E
B11: Antibody 8 IgG (antibody, V domains shown)
VH: B1 VH with Y104P, Y105R, V109H
VL: B6 VL with Q3V, K42R, E70D, D81E
B12: Antibody 14 IgG (antibody, V domains shown)
VH: EVQLVQSGGGLIQPGGSLRLSCAASGFTISSNYMIWVRQAPGKGLEWVSDLYYYAGDTYYADSVKGRFTMSRDISKNTVYLQMNSLRAEDTGVYYCARWADDHNYPHIDVWGRGTLVTVSS
VL: B1 VL with Q89A, Q90A, S91H, S93A, T94A
B13: Antibody 16 IgG (antibody, V domains shown)
VH: B1 VH with Y104P, Y105P, V109L
VL: B6 VL with Q3V, K42R, E70D, D81E
B14: Antibody 10 (GL) IgG (antibody, V domains shown)
VH: B1 VH with Q6E, I12V, G92A, A100E, D101E, D102E, H103G, Y104R, Y105G
VL: B6 VL
B15: Antibody 2 IgG (antibody, V domains shown)
VH: B1 VH with I35T, K65R, N84D, D102G, R112G
VL: B1 VL with A34T, T94A, I106L
notes: Non-germlined; also called Ab 2
B16: Antibody 4 IgG (antibody, V domains shown)
VH: B1 VH with I29V, I35T, D102G, I107A, T117S
VL: B1 VL with T85S, T94A, I106L
notes: Non-germlined; IgG1 with human heavy chain and kappa constant domains; also called Ab 4
B17: Antibody 5 IgG (antibody, V domains shown)
VH: B1 VH with D102G, I107A, T117S
VL: B1 VL with S9P, T85S, T94A
notes: Non-germlined; IgG1 with human heavy chain and kappa constant domains; also called Ab 5
B18: Antibody 3 IgG (antibody, V domains shown)
VH: B1 VH with E1Q, I35V, M70V, Y106H
VL: B1 VL with V46A
notes: Non-germlined; IgG1 with human heavy chain and kappa constant domains; also called Ab 3

The binders below were run against T1, HIS FLAG tagged human IL-6 (human, UniProt P05231 30-212) (assay: HTRF receptor-ligand competition; HIS FLAG human IL-6 vs biotinylated sIL-6R).
T1 construct: In house; also called HIS FLAG IL-6; HIS/FLAG IL-6
Procedure: Unique scFvs were expressed again in bacteria and purified by affinity chromatography (as described by Bannister et al. Purified IgG samples of these clones were also prepared as described in section 1.3. The potencies of these samples were determined by competing a dilution series of the purified preparation against biotinylated sIL-6R for binding to HIS FLAG tagged human IL-6 (in house E. coli derived).
Purified scFv and IgG from positive clones identified from screening were tested in a HTRF® assay for inhibition of binding of HIS FLAG tagged human IL-6 to biotinylated IL-6R. 8 nM biotinylated human IL-6R was pre-incubated for 30 minutes at room temperature in the dark, with 8 nM streptavidin XL^{ent!}™. All dilutions were done in phosphate buffered saline (PBS) containing 0.4 M potassium fluoride and 0.1% BSA (assay buffer).

IC50 | Binder
45 nM | B1

What follows are binders tested against T1, HIS FLAG tagged human IL-6 (assay: HTRF antibody-ligand competition; competitor biotinylated CAN022D10 IgG).
Procedure: (§1) Crude scFv preparations from a representative number of individual clones for the round 3 and round 4 outputs were screened for their inhibitory activity in a CAN022D10 IgG-IL-6 HTRF® binding assay. In this assay, binding of biotinyated antibody and FLAG-tagged IL-6 was detected using cryptate labelled anti-FLAG monoclonal antibody and streptavidin XL^{ent!}™. The detailed assay method is provided in the Materials and Methods section.
(§2) The IC₅₀ value for each scFv was then calculated from data obtained by a testing dilution series of the purified sample in the HTRF antibody-ligand biochemical assay and TF-1 proliferation assay.
Target sequence in this assay (P05231 other isoform, or with tags, fused parts or gaps): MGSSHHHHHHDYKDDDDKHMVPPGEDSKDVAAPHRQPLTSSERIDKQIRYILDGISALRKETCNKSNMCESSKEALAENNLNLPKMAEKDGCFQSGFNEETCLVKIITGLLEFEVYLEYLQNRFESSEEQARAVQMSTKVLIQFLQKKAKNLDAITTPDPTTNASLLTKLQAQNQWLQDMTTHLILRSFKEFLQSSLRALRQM

IC50 | Binder
0.024 nM | B2
0.022 nM | B3
0.035 nM | B4
0.065 nM | B5

These binders were tested against T2, Mature human IL-6 (human, UniProt P05231 30-212) (assay: cell-based or functional assay).

Mean IC50, inhibition of IL-6 induced IgM secretion from SKW6.4 cells, n=3 | Binder
0.00264 nM | B6
0.00321 nM | B7
0.00263 nM | B8

Target: T2, Mature human IL-6
Assay: cell-based or functional assay
Remark: another data set of the same source
Target sequence in this assay (P05231 30-212): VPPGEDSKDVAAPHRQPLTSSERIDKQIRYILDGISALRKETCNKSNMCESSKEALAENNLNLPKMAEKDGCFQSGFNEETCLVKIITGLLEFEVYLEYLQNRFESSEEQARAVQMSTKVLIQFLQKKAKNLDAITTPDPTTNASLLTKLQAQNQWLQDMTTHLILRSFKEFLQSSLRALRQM

IC50, TF-1 cell proliferation assay | Binder
0.068 nM | B9
0.02 nM | B10
0.048 nM | B11
0.031 nM | B12
0.0049 nM | B13

Target: T2, Mature human IL-6
Assay: cell-based or functional assay
Remark: another data set of the same source
Target sequence in this assay (P05231 30-212): as above

IC50, IL-6 induced TF-1 cell proliferation assay | Binder
0.005 nM | B6
0.001 nM | B7
0.071 nM | B14
0.003 nM | B8

Target: T2, Mature human IL-6
Assay: cell-based or functional assay
Remark: another data set of the same source
Target sequence in this assay (P05231 30-212): as above

IC50, TF-1 Proliferation Assay | Binder
13.4 nM | B2
7.3 nM | B3
0.016 nM | B15
0.061 nM | B16
0.042 nM | B17
9.6 nM | B4
0.05 nM | B18
12.4 nM | B5

Each binder was assayed against T2, Mature human IL-6 (assay: SPR, BIAcore 2000; IgG amine-coupled to CM5 chip, IL-6 as analyte).
Procedure: (§3) Human and cynomolgus IL-6 at a range of concentrations between 200 nM and 0.2 nM in HBS-EP buffer were passed over the sensor chip surface. The resulting sensorgrams were evaluated using BIA evaluation 3.1 software to provide relative binding data.
(§4) BIAcore studies were undertaken using a BIAcore 2000™. […] Human IL-6 at a range of concentrations between 200 nM and 0.2 nM in HBS-EP buffer were passed over the sensor chip surface. The resulting sensorgrams were evaluated using BIA evaluation 3.1 software to calculate the kₒₙ, koff and KD values for the antibodies tested.

Kd | Binder
< 0.01 nM | B6
< 0.01 nM | B8

Each binder was assayed against T3, Cynomolgus IL-6 (cynomolgus, UniProt P79341 28-212) in the same assay as above.
T3 construct: mature; also called cyno IL-6; macaque IL-6
Procedure: as §3, §4

Kd | Binder
< 0.01 nM | B6
< 0.01 nM | B8

Each binder was assayed against T1, HIS FLAG tagged human IL-6 (assay: HTRF antibody-ligand competition; competitor biotinylated CAN022D10 IgG; protocol modified for IgG (footnote)).
Procedure: as §1, §2
Target sequence in this assay (P05231 other isoform, or with tags, fused parts or gaps): as the sequence (P05231 other isoform, or with tags, fused parts or gaps) above

IC50 | Binder
0.036 nM | B15
0.043 nM | B16
0.026 nM | B17
0.043 nM | B18

Target: T2, Mature human IL-6
Assay: cell-based or functional assay
Remark: another data set of the same source
Target sequence in this assay (P05231 30-212): as the sequence (P05231 30-212) above

IC50, endogenous IL-6 induced synovial fibroblast VEGF release assay | Binder
0.75 nM | B6
0.57 nM | B7
0.55 nM | B14
0.93 nM | B8
0.59 nM | B15
0.52 nM | B16
0.7 nM | B17
0.38 nM | B18
